In publication PMC8927147 (2022):
Ends that are not written are not given here. * marks the point of attachment. Bz = O=C(c1ccccc1)*

T1: Taf14_(YEATS) (S. cerevisiae, UniProt P35189 2-137)
T1 chain: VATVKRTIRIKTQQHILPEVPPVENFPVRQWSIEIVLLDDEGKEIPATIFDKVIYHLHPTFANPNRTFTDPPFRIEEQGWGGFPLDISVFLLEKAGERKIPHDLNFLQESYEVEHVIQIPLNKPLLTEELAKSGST

T2: Sas5_(YEATS) (S. cerevisiae, UniProt Q99314 2-139)
T2 chain: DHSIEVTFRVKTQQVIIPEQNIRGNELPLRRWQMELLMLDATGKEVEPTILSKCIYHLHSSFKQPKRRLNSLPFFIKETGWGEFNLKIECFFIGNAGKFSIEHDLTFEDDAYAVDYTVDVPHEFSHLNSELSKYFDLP


What was measured:
Experiment in all cases: ITC
Taf14_(YEATS) = target: T1, Taf14_(YEATS)
Sas5_(YEATS) = target: T2, Sas5_(YEATS)
Hst2 = Hst2 (S. cerevisiae, UniProt P53686 1-357)
Hst2, sequence (P53686 whole entry): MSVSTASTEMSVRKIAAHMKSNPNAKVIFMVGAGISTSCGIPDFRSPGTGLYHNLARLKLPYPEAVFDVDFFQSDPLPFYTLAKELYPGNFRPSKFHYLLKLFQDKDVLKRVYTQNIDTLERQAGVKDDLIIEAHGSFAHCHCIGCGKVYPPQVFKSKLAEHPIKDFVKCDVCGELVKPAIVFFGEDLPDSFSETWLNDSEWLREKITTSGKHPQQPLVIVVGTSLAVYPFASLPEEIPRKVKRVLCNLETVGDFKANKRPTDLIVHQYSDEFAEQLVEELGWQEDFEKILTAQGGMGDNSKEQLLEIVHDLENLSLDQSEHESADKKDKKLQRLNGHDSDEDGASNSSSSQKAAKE

Binder	Kd (Taf14_(YEATS)) [µM]	Kd (Sas5_(YEATS)) [µM]	Kd (Hst2) [µM]
APRKQLASK(Bz)AARKSAPSTY [H3K23bz peptide]	467	279	14.8
KQLASKAARK(Bz)SAPSTGGVKY [H3K27bz peptide]	136	92.6	6.13
ARTKQTARKSTGGKAPRKQY (benzoyl-lysine (Kbz) at K9) [H3K9bz peptide]		178	
TARKSTGGK(Bz)APRKQLASY [H3K14bz peptide]	385	100	13.2
STGGKAPRKQLASKAARY (benzoyl-lysine (Kbz) at K18) [H3K18bz peptide]	85.5	245	1.74
